How the values were obtained:
hRPA = hRPA (human, UniProt P27694;P15927;P35244 1-616;1-270;1-121); assay: EMSA
hRPA;RPAIN = hRPA;RPAIN (human;human, UniProt P27694;P15927;P35244;Q86UA6 1-616;1-270;1-121;1-219, |); assay: EMSA
Chain of hRPA;RPAIN (P27694 whole entry, chain 1 of 4): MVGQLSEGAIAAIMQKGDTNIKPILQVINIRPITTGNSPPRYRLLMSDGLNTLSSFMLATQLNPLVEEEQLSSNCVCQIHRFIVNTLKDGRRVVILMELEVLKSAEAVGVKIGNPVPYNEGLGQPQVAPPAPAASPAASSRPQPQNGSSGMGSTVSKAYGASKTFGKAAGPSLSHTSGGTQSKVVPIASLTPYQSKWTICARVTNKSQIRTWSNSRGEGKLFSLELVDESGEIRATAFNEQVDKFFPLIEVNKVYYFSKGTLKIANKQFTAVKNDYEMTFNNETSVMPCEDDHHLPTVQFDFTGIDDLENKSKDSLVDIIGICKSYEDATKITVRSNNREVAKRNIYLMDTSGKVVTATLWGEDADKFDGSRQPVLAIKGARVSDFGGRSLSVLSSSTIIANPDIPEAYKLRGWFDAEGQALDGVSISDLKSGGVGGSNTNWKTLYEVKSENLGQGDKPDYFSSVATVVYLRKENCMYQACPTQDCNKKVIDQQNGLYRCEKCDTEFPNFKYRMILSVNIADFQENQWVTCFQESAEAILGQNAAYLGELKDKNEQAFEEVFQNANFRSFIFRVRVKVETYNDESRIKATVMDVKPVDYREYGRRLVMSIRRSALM
Chain of hRPA;RPAIN (P15927 whole entry, chain 2 of 4): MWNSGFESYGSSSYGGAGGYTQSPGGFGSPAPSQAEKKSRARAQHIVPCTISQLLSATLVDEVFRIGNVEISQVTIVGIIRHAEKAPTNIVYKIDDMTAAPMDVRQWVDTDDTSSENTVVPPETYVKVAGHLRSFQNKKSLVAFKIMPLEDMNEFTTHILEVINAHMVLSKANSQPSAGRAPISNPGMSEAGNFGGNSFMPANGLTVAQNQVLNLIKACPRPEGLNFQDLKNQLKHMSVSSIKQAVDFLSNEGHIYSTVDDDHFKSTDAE
Chain of hRPA;RPAIN (P35244 whole entry, chain 3 of 4): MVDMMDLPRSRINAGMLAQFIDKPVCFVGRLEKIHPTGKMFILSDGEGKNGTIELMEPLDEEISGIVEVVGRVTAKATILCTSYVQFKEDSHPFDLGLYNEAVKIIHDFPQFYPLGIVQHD
Chain of hRPA;RPAIN (Q86UA6 whole entry, chain 4 of 4): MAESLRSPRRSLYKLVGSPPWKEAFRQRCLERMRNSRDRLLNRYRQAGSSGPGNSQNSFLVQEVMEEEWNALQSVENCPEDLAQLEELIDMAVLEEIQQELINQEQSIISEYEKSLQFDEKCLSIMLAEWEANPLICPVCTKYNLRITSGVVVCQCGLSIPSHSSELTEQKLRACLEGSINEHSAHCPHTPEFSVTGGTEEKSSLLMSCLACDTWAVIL

Chain of hRPA (P27694 whole entry, chain 1 of 3): as the sequence (P27694 whole entry, chain 1 of 4) above
Chain of hRPA (P15927 whole entry, chain 2 of 3): as the sequence (P15927 whole entry, chain 2 of 4) above
Chain of hRPA (P35244 whole entry, chain 3 of 3): as the sequence (P35244 whole entry, chain 3 of 4) above

In the case of TTTTTTTTTTTTTTTTTTTTTTTTTTTTTT (ssDNA) [5'-Cy5-(dT)30], the Kd (hRPA) is reported as 10.5 nM and the Kd (hRPA;RPAIN) is reported as 11.8 nM.
